Literature values, collected in article PMC4518449 (Journal of chromatography. B, Analytical technologies in …, 2013).

Settings: rapidly cleared by DPP-4

GLP-1
half-life in plasma: less than 2 min
